Patent publication US7871610B2, “Antibodies to Tie1 ectodomain” (Dyax Corp., priority 2003, dated 2011)

Tests used:
[1] = molecular target: Tie1 (Homo sapiens, UniProt P35590); assay: Immunofluorescence staining of Tie1-transfected COS1 cells; format: binding; details: COS1 cells transfected with pcDNA3-Tie1-V5; antibodies 5 μg/ml
Description: COS1 cells on the glass coverslips were transiently transfected with pcDNA3-Tie1-V5 (the V5-epitope was added to the 3′ terminus of pcDNA3-Tie1) (1 μg DNA per 10 cm cell culture plate) using FUGENE™ 6 (Roche) according to manufacturer's instruction and incubated for 48 h before staining. Cells were fixed in 4% paraformaldehyde for 10 min at 4° C. If required, the cells were permeabilized with 0.2% Triton X-100 in PBS for 5 min. Unspecific binding sites were blocked by incubation with 1% BSA in PBS for 30 min. The cells were then stained with anti-Tie1 antibodies (5 μg/ml) and anti-V5 antibodies for 1 h at room temperature, followed by incubation with FITC— conjugated anti-human antibodies (DAKO, 40 μg/ml) and TRITC-conjugated anti-mouse antibodies (DAKO, 15 μg/ml) for 30 min. Hoechst 33258 fluorochrome (Sigma, 0.5 μg/ml) was used for the staining of the nuclei.

[2] = molecular target: T1, Tie1-EpoR chimeric receptor (UniProt P14753+P35590); assay: Ba/F3 bioassay (Tie1/EpoR chimeric BaF3 cell assay), MTT viability; format: cell-based, human; details: 100 ng/ml E3 IgG together with 100 (1:1) or 500 (1:5) ng/ml of the other antibody
T1 construct: the PCR amplified extracellular part of human Tie1 (bp 37-2316 of X60975); expressed in transfected cells
T1 sequence (P35590+P14753 with tags, fused parts or gaps): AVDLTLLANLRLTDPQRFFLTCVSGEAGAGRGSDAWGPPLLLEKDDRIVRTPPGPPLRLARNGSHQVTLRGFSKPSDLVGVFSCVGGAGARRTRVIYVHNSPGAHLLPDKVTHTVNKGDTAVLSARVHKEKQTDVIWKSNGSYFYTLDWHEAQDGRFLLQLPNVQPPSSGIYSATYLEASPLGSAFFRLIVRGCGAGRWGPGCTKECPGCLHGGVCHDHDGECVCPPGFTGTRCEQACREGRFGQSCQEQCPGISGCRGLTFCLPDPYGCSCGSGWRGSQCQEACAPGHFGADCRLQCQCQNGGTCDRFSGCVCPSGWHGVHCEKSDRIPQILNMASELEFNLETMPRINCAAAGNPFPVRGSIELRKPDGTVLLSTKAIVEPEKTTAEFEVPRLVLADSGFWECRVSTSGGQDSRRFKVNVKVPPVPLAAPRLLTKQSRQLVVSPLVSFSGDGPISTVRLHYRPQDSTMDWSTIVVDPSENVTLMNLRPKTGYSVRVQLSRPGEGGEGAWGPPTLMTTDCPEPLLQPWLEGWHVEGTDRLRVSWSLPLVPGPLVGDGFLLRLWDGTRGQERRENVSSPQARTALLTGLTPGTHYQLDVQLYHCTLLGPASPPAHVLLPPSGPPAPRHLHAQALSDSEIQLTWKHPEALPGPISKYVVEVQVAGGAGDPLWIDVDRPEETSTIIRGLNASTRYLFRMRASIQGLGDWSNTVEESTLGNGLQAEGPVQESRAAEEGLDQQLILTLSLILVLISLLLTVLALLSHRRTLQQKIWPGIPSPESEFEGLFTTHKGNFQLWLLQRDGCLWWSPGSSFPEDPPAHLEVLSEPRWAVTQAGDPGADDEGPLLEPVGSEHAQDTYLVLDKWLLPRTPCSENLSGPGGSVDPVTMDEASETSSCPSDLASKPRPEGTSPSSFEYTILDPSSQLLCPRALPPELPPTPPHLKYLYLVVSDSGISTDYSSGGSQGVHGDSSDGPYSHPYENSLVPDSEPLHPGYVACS
Text: To generate Tie1-EpoR expressing Ba/F3 cells for the bioassay, Ba/F3 pre-B cells were stably transfected with a nucleic acid that expresses chimeric receptor containing the extracellular domain of human Tie1 fused with the transmembrane and cytoplasmic domains of the mouse erythropoietin receptor. The nucleic acid used was a Tie1-EpoR chimeric cDNA in a pEF-BOS expression vector. The nucleic acid encoding the chimeric receptor was constructed by cloning the PCR amplified extracellular part of human Tie1 (bp 37-2316 of X60975) as EcoRI-BglII fragment into mEpoR-pcDNA vector. The cDNA encoding for the chimeric receptor consisting of the extracellular part of Tie1 fused with the transmembrane and intracellular domains of EpoR was subcloned into the pEF-BOS expression vector. Vector was linearized and co-transfected into Ba/F3 cells with pcDNA3.1(+) Zeo vector (Invitrogen). Stable cell pools were generated by selection with 250 μg/ml Zeocin. The expression of Tie1/EpoR fusion protein in several clones was analyzed by Western blotting with an antibody against EpoR.
To perform the assays, Ba/F3 cells expressing the Tie 1-EpoR chimera were split in 96-well microtiter plates at 50 000 cells/well in the presence of the indicated concentrations of anti-Tie1 antibodies. As controls, Zeocin resistant pools not expressing the Tie1-EpoR were used. After 48 h, the viability of the cells was determined by adding MTT (3-(4,5-dimethylthiazol-2-yl)-2,5-diphenyl tetrazolium bromide (Sigma), 0.5 mg/ml), followed by further 2 h of culture, addition of an equal volume of cell lysis solution (10% SDS, 10 mM HCl) and incubation overnight at 37° C. Absorbance was measured at 540 nm.
Although no ligand for Tie1 has been identified, we used the following efficient screening method for Tie1-binding proteins. Interleukin-3 dependent pre-B-lymphocyte (Ba/F3) cells were transfected with a construct that expresses a Tie1-EpoR fusion protein. Since Ba/F3 cells are IL-3 dependent, they die unless IL-3 is provided. However, Tie-EpoR receptor expressing Ba/F3 cells can survive and proliferate if the medium contains a Tie1-binding protein, either a natural ligand or an artificial mimetic. Cell survival can be quantitated, e.g., by colorimetric MTT-assay, which measures mitochondrial activity.

[3] = molecular target: T2, Mouse Tie 1-Fc (Mus musculus, UniProt Q06806); assay: BIAcore, E3 Fabs on mouse Tie1-Fc; format: binding; details: E3 Fab over biotinylated mouse Tie-1 Fc on streptavidin chip; 1:1 model
T2 sequence (Q06806 23-755 limits assumed): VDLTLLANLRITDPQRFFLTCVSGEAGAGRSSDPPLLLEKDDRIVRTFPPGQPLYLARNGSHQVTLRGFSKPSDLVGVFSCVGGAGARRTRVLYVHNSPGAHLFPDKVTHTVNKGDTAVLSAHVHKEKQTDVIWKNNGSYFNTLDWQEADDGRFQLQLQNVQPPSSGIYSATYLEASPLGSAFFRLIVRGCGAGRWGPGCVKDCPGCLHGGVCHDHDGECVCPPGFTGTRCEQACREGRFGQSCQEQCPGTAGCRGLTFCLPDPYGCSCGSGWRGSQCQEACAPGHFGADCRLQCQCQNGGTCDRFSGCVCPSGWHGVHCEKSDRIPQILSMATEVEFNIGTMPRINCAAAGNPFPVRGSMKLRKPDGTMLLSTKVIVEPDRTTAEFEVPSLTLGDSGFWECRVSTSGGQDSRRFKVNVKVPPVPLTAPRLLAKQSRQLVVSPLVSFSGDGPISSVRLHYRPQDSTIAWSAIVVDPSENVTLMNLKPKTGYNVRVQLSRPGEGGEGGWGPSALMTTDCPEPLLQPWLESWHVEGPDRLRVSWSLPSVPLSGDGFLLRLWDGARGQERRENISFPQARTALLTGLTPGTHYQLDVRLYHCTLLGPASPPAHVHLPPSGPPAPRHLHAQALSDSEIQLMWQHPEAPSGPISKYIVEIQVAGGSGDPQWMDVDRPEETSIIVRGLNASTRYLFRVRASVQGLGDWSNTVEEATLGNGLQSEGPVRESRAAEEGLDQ
Description: Mouse Tie 1-Fc antigen (0.5 mg/ml stock) was biotinylated using established procedures and after dilution 1/100 fold in HBS this was then used for capturing to a streptavidin chip. This was coated to a resonance value of 740RU. All analysis was performed in HBS buffer. The parental Fab E3 0.587 mg/ml (11740 nM) was diluted 1/587 in HBS+BSA to obtain a stock of 20 nM and the germlined Fab E3 0.025 mg/ml (500 nM) was diluted 1/25 in HBS+BSA to obtain a stock of 20 nM. Serial dilutions were made of each Fab preparation to obtain 10 nM, 5 nM, 2.5 nM, and 1.25 nM. For the association phase samples were injected at 30 μl/min for 4 minutes using kinject program. This was followed by a 10 minutes dissociation phase, any remaining sample was stripped from the Tie-1 Fc surface at a flow of 50 μl/min with a single injection of 50 mM NaOH+1 M NaCl for 18 seconds. All samples were run and analyzed in duplicate.
Sensorgrams were analyzed using the simultaneous ka/kd fitting program with 1:1 model in the BIAEVALUATION™ software 3.1.

[4] = molecular target: T3, recombinant human Tie1-Fc (Homo sapiens, UniProt P35590); assay: BIAcore, parental and germlined E3b Fabs on human Tie-1/Fc; format: binding; details: E3 Fab over human Tie-1/Fc coated on CM5 chip; 1:1 model
T3 construct: selected against the Tie1 extracellular domain fused to human Fc or to a histidine purification tag
T3 sequence (P35590 22-759 limits assumed): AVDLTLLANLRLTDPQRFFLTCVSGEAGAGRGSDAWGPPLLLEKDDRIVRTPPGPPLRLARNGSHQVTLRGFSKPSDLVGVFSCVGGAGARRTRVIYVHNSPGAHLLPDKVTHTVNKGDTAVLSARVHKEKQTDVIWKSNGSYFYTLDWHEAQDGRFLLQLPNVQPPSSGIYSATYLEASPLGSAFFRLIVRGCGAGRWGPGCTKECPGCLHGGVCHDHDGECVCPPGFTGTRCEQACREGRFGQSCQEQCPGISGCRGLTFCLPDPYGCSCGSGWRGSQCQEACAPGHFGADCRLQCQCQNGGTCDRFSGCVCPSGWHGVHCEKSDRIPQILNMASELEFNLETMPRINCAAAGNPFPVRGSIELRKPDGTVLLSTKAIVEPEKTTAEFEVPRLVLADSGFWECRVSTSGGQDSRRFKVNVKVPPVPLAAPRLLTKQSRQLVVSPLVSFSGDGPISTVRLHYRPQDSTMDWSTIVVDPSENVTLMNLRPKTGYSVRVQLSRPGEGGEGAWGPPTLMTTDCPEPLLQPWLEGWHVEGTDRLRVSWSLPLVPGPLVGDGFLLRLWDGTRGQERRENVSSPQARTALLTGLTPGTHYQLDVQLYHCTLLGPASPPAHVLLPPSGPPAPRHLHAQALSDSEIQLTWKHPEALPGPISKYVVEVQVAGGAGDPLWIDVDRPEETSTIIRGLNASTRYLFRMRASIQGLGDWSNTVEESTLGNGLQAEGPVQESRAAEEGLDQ
Description: Recombinant human Tie-1/Fc was coated on a CM5 chip. The surface of the chip was first activated with a 7-minute pulse of 0.05 M NHS/0.2 M EDC, then Tie-1/Fc (2 μg/ml in 10 mM sodium acetate, pH 4.0) was run over the chip surface until 750 RUs were coated on the surface. All flow cells were subsequently deactivated with a 7-minute pulse of 1 M ethanolamine hydrochloride, pH 8.5. All further experiments were performed in HBS buffer.
The parental and the germlined E3b Fabs were prepared. A series of dilution (50, 25, 12.5, 6.25 and 3.125 nM) was prepared in HBS buffer. Samples were injected at 30 μl/min for 5.3 minutes using the KINJECT™ program. This was followed by a 10-minute dissociation phase, and the remaining Fab was stripped from the surface with a single 18-sec injection of 50 mM NaOH/1 M NaCl.
Sensorgrams were analyzed using the simultaneous ka/kd fitting program from the BIAEVALUATION™ software 3.1 assuming a 1:1 model.

Tie1, sequence (P35590 22-1138): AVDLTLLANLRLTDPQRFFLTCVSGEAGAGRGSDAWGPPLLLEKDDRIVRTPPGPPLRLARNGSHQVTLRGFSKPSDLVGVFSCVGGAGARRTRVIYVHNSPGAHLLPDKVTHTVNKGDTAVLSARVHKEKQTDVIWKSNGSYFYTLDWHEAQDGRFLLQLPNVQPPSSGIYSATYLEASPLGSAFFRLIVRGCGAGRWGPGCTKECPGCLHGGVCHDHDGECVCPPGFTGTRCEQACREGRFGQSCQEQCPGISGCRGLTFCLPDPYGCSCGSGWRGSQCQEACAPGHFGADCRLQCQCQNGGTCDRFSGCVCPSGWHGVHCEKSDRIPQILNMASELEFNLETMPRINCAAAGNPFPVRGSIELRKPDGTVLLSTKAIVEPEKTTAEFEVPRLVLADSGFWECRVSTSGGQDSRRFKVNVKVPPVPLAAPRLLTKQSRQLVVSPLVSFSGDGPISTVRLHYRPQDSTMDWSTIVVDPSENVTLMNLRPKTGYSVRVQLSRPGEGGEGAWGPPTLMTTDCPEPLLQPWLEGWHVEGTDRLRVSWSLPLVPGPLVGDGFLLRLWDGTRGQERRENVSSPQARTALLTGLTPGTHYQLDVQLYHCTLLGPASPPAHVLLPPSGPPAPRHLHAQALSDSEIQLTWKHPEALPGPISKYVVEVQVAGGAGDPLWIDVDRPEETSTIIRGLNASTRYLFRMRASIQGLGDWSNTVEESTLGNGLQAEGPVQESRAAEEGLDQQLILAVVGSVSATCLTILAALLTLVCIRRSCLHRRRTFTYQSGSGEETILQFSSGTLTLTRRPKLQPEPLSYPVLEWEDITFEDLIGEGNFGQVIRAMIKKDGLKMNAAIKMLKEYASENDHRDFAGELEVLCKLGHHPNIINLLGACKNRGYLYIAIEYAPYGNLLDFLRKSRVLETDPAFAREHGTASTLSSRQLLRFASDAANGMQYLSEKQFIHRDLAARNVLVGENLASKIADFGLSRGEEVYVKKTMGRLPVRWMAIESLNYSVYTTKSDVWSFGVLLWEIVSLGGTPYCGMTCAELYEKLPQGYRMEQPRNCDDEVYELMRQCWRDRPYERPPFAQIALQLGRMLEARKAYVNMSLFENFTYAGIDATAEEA

B1: P-F4: anti-Tie1 antibody; VH SEQ ID NO:48, VL SEQ ID NO:50 (antibody, V domains shown)
VH: EVQLLESGGGLVQPGGSLRLSCAASGFTFSAYMMSWVRQAPGKGLEWVSSIYPSGGYTYYADSVKGRFTISRDNSKNTLYLQMNSLRAEDTAVYYCARGLRGGPDYWGQGTLVTVSSASTKGPSVFPLAPSSKSTSGGTAALG
VL: QDIQMTQSPSTLSAYVGDSVTITCRASQSVRRSLAWYQQRPGKAPKSLIYKASTLETGVPPRFSGSGSGTEFTLTISSLQPEDSAIYYCQQYGSFPLTFGGG
modifications: Synthetically generated peptide
IF: Tie1-transfected [1]: cross

B2: P-B1: anti-Tie1 antibody; VH SEQ ID NO:20, VL SEQ ID NO:22 (antibody, V domains shown)
VH: EVQLLESGGGLVQPGGSLRLSCAASGFTFSRYPMVWVRQAPGKGLEWVSVISPSGGQTFYADSVKGRFTISRDNSKNTLYLQMNSLRAEDTAVYYCARGVLTTAFDIWGQGTMVTVSSASTKGPSVFPLAPSSKAPLGAQRPWAAWSR
VL: QDIQMTQSPSSLSASVGDRVTITCRASQNINSYLNWYQQKPGQAPKLLIYAASNLETAVPSRFSGSGSGTDFTLTISSLQPEDFATYYCQQFNTYPLTFGGG
modifications: Synthetically generated peptide
IF: Tie1-transfected [1]: weak | effect on the survival effect of E3 IgG in Tie1-EpoR Ba/F3 assay [2]: inhibited the viability effect of E3 IgG to some extent

B3: E3 Fab parental (antibody, V domains shown)
VH: EVQLLESGGGLVQPGGSLRLSCAASGFTFSMYGMVWVRQAPGKGLEWVSVISPSGGNTGYADSVKGRFTISRDNSKNTLYLQVNSLRAEDTAVYYCARAPRGYSYGYYYWGQGTLVTVSSASTKGPSVFPLAPSSKSTSGG
VL: DIQMTQSPLSLSASVGDRVTITCRASQGIGHYLAWYQQKPGKVPKLLIYTASTLQSGVPSRFSGSGSGTDFTLTINSLQPEDVATYYCQQFNSYPHTFGQGTRLDIK
ka [3]: 246000 M⁻¹ s⁻¹ | kd [3]: 0.00095 s⁻¹

B4: E3 Fab Parental (antibody, V domains shown)
VH: B3 VH
VL: B3 VL
ka [4]: 88100 M⁻¹ s⁻¹ | kd [4]: 0.00105 s⁻¹
